Biological target: AjFER-D129A/E132A mutant (Apostichopus japonicus)
Experiment: crystal structure; M3 at approx. 15 mg/mL in 25 mM Tris-HCl, pH 8.0, 150 mM NaCl; crystals from 0.05 M cadmium sulfate hydrate, 0.1 M HEPES, pH 7.5, 1.0 M sodium acetate trihydrate, 18 °C; assembly of subunits into the cage

Work on AjFER-D129A/E132A mutant yielded a stoichiometry N of 24.

— paper PMC9785301
